The results in this text go back to patent US20240141027A1 (BIOARCTIC, published 2024).

Test [1] deals with T1, recombinant murine transferrin receptor 1 (mTfR1), extracellular domain fused to a His-tag (murine, UniProt Q62351 89-763).
T1 construct: Position of the His-tag (N or C) unknown; also called recombinant mTfR1; murine TfR1; not shown: His-tag
Description: indirect ELISA, plates coated with recombinant mTfR1. Here is the method: Binding of selected expressed constructs to mTfR1 was assessed by indirect ELISA (FIG. 4). In brief, half area 96-well plates (Corning, #3690) were coated with 1 μg/ml recombinant mTfR1, produced as described in Example 4, in PBS overnight at 4° C. The coated plates were blocked using Pierce protein-free blocking solution (Thermo Fisher Scientific, #37572) for 1 h at room temperature with shaking and washed four times in PBS containing 0.1% TWEEN-20. Serial dilutions (1:3) of expressed constructs in incubation buffer (1% BSA, 0.1% TWEEN-20 in PBS) were incubated for 1 h at room temperature. Following the four wash steps, bound test constructs were detected by addition of anti-mouse-IgG F(ab′)2-HRP antibody (Jackson Immuno Research, #115-035-006) at 1:1250 dilution in incubation buffer (1 h, room temperature). Following four wash steps, K-Blue® Aqueous TMB substrate (Neogen, #331177) was added to the wells for 15 min at room temperature before the reaction was stopped with 1:1 dilution of 0.5 M H₂SO₄. The optical density at 450 nm was recorded (Spark, Tecan) and background signal was subtracted before analysis.
A general note: In an ELISA, binding on a coated surface is turned into a signal by an enzyme label.

In test [2] the target is T2, mTfR1 expressed on cell surfaces of Immortalized Mouse Cerebral Capillary Endothelial Cells (cEND) (mouse, UniProt Q62351 1-763).
T2 construct: whole, on cells; also called mTfR1 on cEND cells
The experiment in a line: flow cytometry on cEND cells, 100 nM, 4° C., anti-mouse IgG-PE. Here is the method:
Binding and uptake mediated by TfR1 was measured on Immortalized Mouse Cerebral Capillary Endothelial Cells (cEND) (ABM, #T0290).
The pellet was resuspended in PBS and 200,000 cells per well were seeded in U-bottom 96-well Corning plates for flow cytometry staining. Cells were then washed with PBS and incubated with 100 nM of one of the mAb158-8D3 constructs mAb158-scLc-8D3-Ig.1, mAb158-scLc-8D3-Ig.2 and mAb158-scLc-8D3-Ig.3, control 8D3 IgG (light chain of SEQ ID NO:17, heavy chain of SEQ ID NO:19) or murine IgG control for 45 min at 4° C. After primary incubation, cells were washed twice with ice cold PBS, and mAb158-8D3 constructs were captured using a fluorescently labeled secondary anti-mouse IgG-PE antibody (BD Biosciences, 550589). After incubation, cells were washed twice with PBS and resuspended in 200 μl PBS. Cells were acquired in a BD FACSLyric flow cytometer system (BD Biosciences) and samples were analyzed using FCS Express software (De Novo Software).
(In flow cytometry, cells or beads pass a laser one at a time.)

Test [3] deals with T1, recombinant murine transferrin receptor …. The experiment in a line: SPR (Biacore 8K), mTfR1 amine-coupled on CM5 chip, single cycle kinetics. Here is the method:
Monovalent binding interaction for mAb158-scLc-8D3-Ig.8 against murine TfR1 was measured using surface plasmon resonance (Biacore 8K, Cytiva). A Cm5 sensor chip (Cytiva, #BR100399) was immobilized with 3 μg/ml of mTfR1 using the amine coupling kit type 2 (Cytiva, #BR100633) according to the manufacturer's instruction. A 2-fold dilution series in HBS-EP+(Cytiva, #BR100669) starting at 50 nM of analyte was injected in duplicates over the immobilized ligand and the interaction was measured using the single cycle kinetics method with a contact time of 160 s at a flow rate of […] followed by a dissociation time of 1000 s.

T1 sequence (Q62351 89-763): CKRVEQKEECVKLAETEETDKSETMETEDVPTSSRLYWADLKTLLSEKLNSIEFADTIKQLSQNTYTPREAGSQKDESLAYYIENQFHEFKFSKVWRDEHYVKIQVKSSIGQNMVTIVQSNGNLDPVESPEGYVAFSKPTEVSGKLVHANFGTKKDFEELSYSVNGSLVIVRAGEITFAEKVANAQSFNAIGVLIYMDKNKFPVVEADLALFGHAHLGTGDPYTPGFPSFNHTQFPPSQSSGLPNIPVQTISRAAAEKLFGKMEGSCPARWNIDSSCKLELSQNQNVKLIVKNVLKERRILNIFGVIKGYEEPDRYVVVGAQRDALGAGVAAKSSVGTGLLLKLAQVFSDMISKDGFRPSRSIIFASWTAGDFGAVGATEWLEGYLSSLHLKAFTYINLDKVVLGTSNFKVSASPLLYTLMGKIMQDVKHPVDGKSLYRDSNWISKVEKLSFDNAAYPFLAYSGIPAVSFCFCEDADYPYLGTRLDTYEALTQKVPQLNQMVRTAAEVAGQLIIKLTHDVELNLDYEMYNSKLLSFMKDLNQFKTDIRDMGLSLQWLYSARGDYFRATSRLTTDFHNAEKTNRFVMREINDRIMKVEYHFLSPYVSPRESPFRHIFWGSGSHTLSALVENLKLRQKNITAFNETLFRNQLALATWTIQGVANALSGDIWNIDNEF
T2 sequence (Q62351 whole entry): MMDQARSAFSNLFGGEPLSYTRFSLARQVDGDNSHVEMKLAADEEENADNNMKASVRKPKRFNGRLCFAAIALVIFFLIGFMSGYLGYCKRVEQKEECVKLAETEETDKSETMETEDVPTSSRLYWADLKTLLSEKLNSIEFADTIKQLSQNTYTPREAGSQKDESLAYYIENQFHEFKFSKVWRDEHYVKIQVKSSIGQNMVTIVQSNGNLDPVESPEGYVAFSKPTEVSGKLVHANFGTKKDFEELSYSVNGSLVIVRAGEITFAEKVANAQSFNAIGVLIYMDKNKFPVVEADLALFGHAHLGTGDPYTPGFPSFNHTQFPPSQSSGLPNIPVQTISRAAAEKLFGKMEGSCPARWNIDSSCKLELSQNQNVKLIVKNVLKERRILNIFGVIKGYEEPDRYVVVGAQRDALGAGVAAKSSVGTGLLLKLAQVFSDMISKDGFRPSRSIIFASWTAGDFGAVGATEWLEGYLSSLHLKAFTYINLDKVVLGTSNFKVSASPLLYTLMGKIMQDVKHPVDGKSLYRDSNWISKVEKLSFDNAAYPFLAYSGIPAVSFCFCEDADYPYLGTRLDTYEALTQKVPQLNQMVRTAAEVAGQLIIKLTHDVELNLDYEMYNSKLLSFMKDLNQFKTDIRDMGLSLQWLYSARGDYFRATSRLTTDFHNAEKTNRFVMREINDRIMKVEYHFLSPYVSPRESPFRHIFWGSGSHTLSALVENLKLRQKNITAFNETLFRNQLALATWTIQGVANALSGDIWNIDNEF

B1: mAb158-scLc-8D3-Ig.3 (bispecific antibody, human IgG1, kappa)
heavy: not shown
chain: DIVMTQAPLSLPVSLGDQASISCRSSQSIVHSNGNTYLEWYLQKPGQSPKLLIYKVSNRFSGVPDRFSGSGSGTDFTLKISRVEAEDLGIYYCFQGSHVPPTFGGGTKLEIKRADAAPTVSIFPPSSEQLTSGGASVVCFLNNFYPKDINVKWKIDGSERQNGVLNSWTDQDSKDSTYSMSSTLTLTKDEYERHNSYTCEATHKTSTSPIVKSFNRNECGGSSGSGSGSTGTSSSGTGTSAGTTGTSASTSGSGSEVQLVESGGGLVQPGNSLTLSCVASGFTFSNYGMHWIRQAPKKGLEWIAMIYYDSSKMNYADTVKGRFTISRDNSKNTLYLEMNSLRSEDTAMYYCAVPTSHYVVDVWGQGVSVTVSSGGGGSGGGGSGGGGSDIQMTQSPASLSASLEEIVTITCQASQDIGNWLAWYQQKPGKSPQLLIYGATSLADGVPSRFSGSRSGTQFSLKISRVQVEDIGIYYCLQAYNTPWTFGGGTKLELKRGGSSGSGSGSTGTSSSGTGTSAGTTGTSASTSGSGSGGSSGSGSGSTGTSSSGTGTSAGTTGTSASTSGSGSDIVMTQAPLSLPVSLGDQASISCRSSQSIVHSNGNTYLEWYLQKPGQSPKLLIYKVSNRFSGVPDRFSGSGSGTDFTLKISRVEAEDLGIYYCFQGSHVPPTFGGGTKLEIKRADAAPTVSIFPPSSEQLTSGGASVVCFLNNFYPKDINVKWKIDGSERQNGVLNSWTDQDSKDSTYSMSSTLTLTKDEYERHNSYTCEATHKTSTSPIVKSFNRNEC
notes: Format [LC-L1-scBM-L2-LC]
In the case of B1, the binding result in test [1] and in test [2] was “binds” throughout.

B2: mAb158-scLc-8D3-Ig.2 (bispecific antibody, human IgG1, kappa)
heavy: not shown
chain: DIVMTQAPLSLPVSLGDQASISCRSSQSIVHSNGNTYLEWYLQKPGQSPKLLIYKVSNRFSGVPDRFSGSGSGTDFTLKISRVEAEDLGIYYCFQGSHVPPTFGGGTKLEIKRADAAPTVSIFPPSSEQLTSGGASVVCFLNNFYPKDINVKWKIDGSERQNGVLNSWTDQDSKDSTYSMSSTLTLTKDEYERHNSYTCEATHKTSTSPIVKSFNRNECGGGGSGGGGSGGGGSGGGGSGGGGSEVQLVESGGGLVQPGNSLTLSCVASGFTFSNYGMHWIRQAPKKGLEWIAMIYYDSSKMNYADTVKGRFTISRDNSKNTLYLEMNSLRSEDTAMYYCAVPTSHYVVDVWGQGVSVTVSSGGGGSGGGGSGGGGSDIQMTQSPASLSASLEEIVTITCQASQDIGNWLAWYQQKPGKSPQLLIYGATSLADGVPSRFSGSRSGTQFSLKISRVQVEDIGIYYCLQAYNTPWTFGGGTKLELKRGGGGSGGGGSGGGGSGGGGSGGGGSDIVMTQAPLSLPVSLGDQASISCRSSQSIVHSNGNTYLEWYLQKPGQSPKLLIYKVSNRFSGVPDRFSGSGSGTDFTLKISRVEAEDLGIYYCFQGSHVPPTFGGGTKLEIKRADAAPTVSIFPPSSEQLTSGGASVVCFLNNFYPKDINVKWKIDGSERQNGVLNSWTDQDSKDSTYSMSSTLTLTKDEYERHNSYTCEATHKTSTSPIVKSFNRNEC
notes: Format [LC-L1-scBM-L2-LC]
Turning to B2, the binding result in test [1] and in test [2] was “binds” throughout.

B3: 8D3 Fab (Fab, V domains shown)
VH: EVQLVESGGGLVQPGNSLTLSCVASGFTFSNYGMHWIRQAPKKGLEWIAMIYYDSSKMNYADTVKGRFTISRDNSKNTLYLEMNSLRSEDTAMYYCAVPTSHYVVDVWGQGVSVTVSS
VL: DIQMTQSPASLSASLEEIVTITCQASQDIGNWLAWYQQKPGKSPQLLIYGATSLADGVPSRFSGSRSGTQFSLKISRVQVEDIGIYYCLQAYNTPWTFGGGTKLELKR
notes: Anti-mouse TfR1 control; also called monovalent 8D3 Fab control; monovalent 8D3 Fab
In the case of B3, in test [3], the binding result was “binds”.
